Values belong to the molecule of their own block, whether it stands above or below them. Where no end group is shown, it is not given here. Side-chain parts run from the residue outwards. acetamide = acetamide linker between the Cys residue and the PEG
Assays:
human CRHR2 = biological target: T1, human CRHR2 (Homo sapiens, UniProt Q13324); assay: cAMP assay, h-CRHR2 transfected SK-N-MC cells; type: cell-based
T1 construct: expressed in transfected cells
T1 sequence (Q13324 1-411): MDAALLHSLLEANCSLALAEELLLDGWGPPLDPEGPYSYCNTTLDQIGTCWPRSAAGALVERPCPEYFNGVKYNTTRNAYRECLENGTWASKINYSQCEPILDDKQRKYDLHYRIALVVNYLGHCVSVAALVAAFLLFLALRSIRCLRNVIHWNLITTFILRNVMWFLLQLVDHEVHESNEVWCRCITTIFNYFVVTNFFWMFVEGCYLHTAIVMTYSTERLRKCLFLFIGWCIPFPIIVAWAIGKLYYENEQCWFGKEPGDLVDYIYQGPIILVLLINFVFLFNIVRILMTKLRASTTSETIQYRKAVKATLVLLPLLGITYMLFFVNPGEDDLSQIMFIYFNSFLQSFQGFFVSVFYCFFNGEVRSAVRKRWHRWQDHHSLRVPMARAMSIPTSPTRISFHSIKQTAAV
Method in brief: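 SK-N-MC cells stably expressing human CRHR2 were treated with peptides (1 pM to 1 μM) for 60 min at 37 °C in IBMX-containing medium, with 10 μM forskolin as positive control. Cells were lysed with 0.5 M HCl and cAMP measured by [125I]-cAMP competition flash plate. A50 came from Hill-equation fits, normalised to h-SCP maximum.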

HF dogs = assay: Single SC bolus injection in HF dogs; type: in vivo, dog
Method: After reaching a steady state plasma concentration, the heart rate remained fairly stable. […] The target plasma concentration of about 60 ng/mL is reached in about 2 hours and 10 minutes after the time point of injection, then leveling off at about 100 ng/mL after about 3, still maintaining its level at about 6 hours after injection. The stresscopin-relative concentration of 60 ng/mL and of 100 ng/mL of a SEQ ID NO:102 peptide is 600 pg/mL and 1000 pg/mL, respectively.

[1] = Nonclinical pharmacokinetics in rats; design: species or system rat; details: rat, in vivo; for % F (Bioavailability) / AUC0-∞ / Tmax: sc
Method: (§1) A sandwich immunoassay was developed using an affinity purified goat polyclonal antibody, specific to h-SCP that was pre-coated onto a microplate with integrated electrodes. h-SCP molecules present in the sample will bind to the capture polyclonal antibody coated on the plate. After washing away any unbound substances, a sulfo-tagged mouse monoclonal anti-h-SCP antibody was added. This conjugated antibody will bind to the h-SCP molecules captured on the microplate and the quantity of analyte was determined by electrochemiluminescence. The amount of signal generated is directly proportional to the h-SCP concentration in the sample or standard. The standard curve range is 3.125-1600 pg/mL with a quantifiable range from 10-800 pg/mL. A sample volume of 25 μL (in duplicate) is required for this assay. This immunoassay is specific for human and dog stresscopin and human urocortin III (h-UCN3). […] After completion of the analysis, based on a comparison of reference standards between the ELISA and HPLC method, a correction factor of 1.57 was applied to all bioanalytical data.
(§2) The nonclinical pharmacokinetics of h-SCP (SEQ ID NO:1) and pegylated stresscopin-like peptides were studied in rats, dogs, and cynomolgus monkeys (cyno). Nonclinical pharmacokinetic studies focused on characterization of IV infusion at pharmacologically relevant dose levels, supplemented with IV and SC bolus and toxicokinetic analysis.

[2] = Nonclinical pharmacokinetics in dogs; design: species or system dog; details: dog, in vivo
Method: as §1, §2

[3] = biological target: T2, human corticotrophin releasing hormone receptor type 2 (CRHR2) (human) (UniProt Q13324); assay: cell-based or functional assay
T2 sequence (looked up): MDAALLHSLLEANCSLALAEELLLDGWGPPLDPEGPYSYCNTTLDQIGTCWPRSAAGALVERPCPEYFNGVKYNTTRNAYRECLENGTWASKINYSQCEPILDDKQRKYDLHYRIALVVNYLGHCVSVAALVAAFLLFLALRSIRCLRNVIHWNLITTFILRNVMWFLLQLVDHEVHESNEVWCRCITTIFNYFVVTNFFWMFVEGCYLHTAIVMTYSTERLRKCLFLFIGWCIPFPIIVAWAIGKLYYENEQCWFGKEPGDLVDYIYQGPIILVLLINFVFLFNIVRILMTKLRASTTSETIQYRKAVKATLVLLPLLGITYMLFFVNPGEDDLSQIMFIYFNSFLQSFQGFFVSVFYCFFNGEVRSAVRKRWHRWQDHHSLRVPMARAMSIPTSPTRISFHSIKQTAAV

[4] = biological target: T3, human corticotrophin releasing hormone receptor type 1 (CRHR1) (human, UniProt P34998 24-415); assay: radioligand competition against [125I]-(Tyr0)-sauvagine, CRHR1 assay, cell membranes
T3 construct: whole, on cells; cAMP assay on whole cells; radioligand assay on cell membranes; also called h-CRHR1; CRH receptor type 1
T3 sequence (looked up): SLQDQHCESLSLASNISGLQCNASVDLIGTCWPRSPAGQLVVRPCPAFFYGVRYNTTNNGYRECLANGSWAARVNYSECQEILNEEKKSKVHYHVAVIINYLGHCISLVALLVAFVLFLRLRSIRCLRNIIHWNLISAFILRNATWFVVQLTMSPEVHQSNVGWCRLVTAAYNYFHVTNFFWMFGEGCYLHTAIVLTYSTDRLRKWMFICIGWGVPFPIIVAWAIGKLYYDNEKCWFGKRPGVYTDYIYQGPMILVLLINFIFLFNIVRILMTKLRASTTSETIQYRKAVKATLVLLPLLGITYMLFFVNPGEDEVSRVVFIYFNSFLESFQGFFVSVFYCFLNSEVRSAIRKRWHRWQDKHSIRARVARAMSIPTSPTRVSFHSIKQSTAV
Method: Frozen cell pellets were defrosted on ice in 15 ml of assay buffer that was composed of 10 mM HEPES, 130 mM NaCl, 4.7 mM KCl, 5 mM MgCl₂, and 0.089 mM bacitracin at pH 7.2 and 21±3° Celsius. The solution was then homogenized with a Polytron tissue grinder at a setting of 10 and 7×3 s (Brinkmann Instruments, Westbury, N.Y.). The homogenate was centrifuged at 4° Celsius at 800×g for 5 min with the pellet being discarded. The supernatant was re-centrifuged at 26,892×g for 25 min at 4° Celsius with the final pellet being re-suspended in assay buffer. All binding assays were conducted in 96-well Multiscreen GF/B filter plates (Millipore, Billericay, Mass., U.S.A.) that were pre-soaked in assay buffer with 0.3% PEI for 1 hour. […]
The bound radioactivity was separated by filtration using a Multiscreen Resist manifold (Millipore Corp., Billerica, Mass., U.S.A). The filters were washed three times with ice-cold PBS at pH 7.5 and radioactivity retained on the filters was quantified by its liquid scintillation measured by a TopCount counter (Packard BioScience, Boston, Mass., U.S.A). […]
Data from individual competition curves were expressed as the percentage of specific [¹²⁵I]-anti-sauvagine-30 or)[¹²⁵I]-(Tyr⁰-sauvagine binding (B) within each experiment.

[5] = biological target: T2, human corticotrophin releasing hormone receptor type 2 (CRHR2) (human); assay: radioligand competition against [125I]-anti-sauvagine-30, membranes of SK-N-MC cells with human CRHR2

pA50 in the presence of anti-sauvagine-30 (human CRHR2; 100 nM anti-sauvagine-30, maximal response constrained to 100%): ~6.89 | agonist potency ratio to stresscopin of SEQ ID NO:1 reduced by a factor (human CRHR2; 10^(9.40-8.15)): 17.78 | nH (human CRHR2; Table 14): 1.05 | pA50 (human CRHR2; Table 14): 8.15 | αmax (human CRHR2; Table 14, % of the maximum response obtained to h-SCP): 111.1%
Molecule: TKFTLSLDVPTNIMNLLFNIAKAKNLRC(-IA-PEG MW20000)QA AANAH LMAQI-NH2 (TKFTLSLDVPTNIMNLLFNIAKAKNLRC([acetamide-PEG 20 kDa])QAAANAHLMAQI-NH2) [SEQ ID NO: 102]
heart rate (HF dogs; HF dogs, bolus SC injection 30 μg/kg): declined over the first few hours | LVEF and CO performance (HF dogs; HF dogs, bolus SC injection 30 μg/kg, up to 4 hours): significantly increased | stresscopin-relative concentration (HF dogs; of 60 ng/mL of SEQ ID NO:102 peptide): 600 pg/mL | stresscopin-relative concentration (HF dogs; of 100 ng/mL of SEQ ID NO:102 peptide): 1000 pg/mL | Vz (volume of distribution) ([1]; iv, 15 ug/kg): 0.51 ± 0.023 L/kg | % F (Bioavailability) ([1]; 15 ug/kg): 36% | AUC0-∞ ([1]; 15 ug/kg): 342 ± 107 ng·h/mL | Tmax ([1]; 15 ug/kg): 7 ± 1 h | % F (Bioavailability) ([1]; 150 ug/kg): 20% | AUC0-∞ ([1]; 150 ug/kg): 1914 ± 464 ng·h/mL | Tmax ([1]; 150 ug/kg): 6.3 ± 1.8 h | Vz (volume of distribution) ([2]; iv, 15 ug/kg): 0.034 ± 0.007 L/kg | % F (Bioavailability) ([2]; sc, 5 ug/kg): 71% | AUC0-∞ ([2]; sc, 5 ug/kg): 3510 ± 270 ng·h/mL | Cmax ([2]; sc, 5 ug/kg): 24.6 ± 2.6 ng/mL | Tmax ([2]; sc, 5 ug/kg): 32 ± 8 h | % F (Bioavailability) ([2]; sc, 15 ug/kg): 41% | AUC0-∞ ([2]; sc, 15 ug/kg): 6089 ± 1808 ng·h/mL | Tmax ([2]; sc, 15 ug/kg): 5 ± 1 h

pA2 (antagonism of the cAMP response to h-SCP) [3]: 7.82 -log10(M) | pKI [4]: 5.81 -log10(M) | pKI [5]: 7.78 -log10(M)
Molecule: FHLLRKMIEIEKQEKEKQQAANNRLLLDTI-NH2 (also called SV30; AS-30) [anti-sauvagine-30]

— patent US20110105397A1, “METHOD FOR TREATING HEART FAILURE WITH STRESSCOPIN-LIKE PEPTIDES” (priority 2009, published 2011)
